# Patent US20240076396A1 (Regeneron, published 2024)
# T1: human GITR expressed on the cell surface (human, UniProt Q9Y5U5 26-241)
# T1 sequence: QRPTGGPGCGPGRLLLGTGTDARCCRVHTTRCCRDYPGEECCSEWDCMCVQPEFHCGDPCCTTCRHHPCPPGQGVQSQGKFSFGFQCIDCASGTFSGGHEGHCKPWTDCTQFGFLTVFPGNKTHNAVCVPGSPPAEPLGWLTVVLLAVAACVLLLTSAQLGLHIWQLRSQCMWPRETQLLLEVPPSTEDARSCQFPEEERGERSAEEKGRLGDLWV
# T2: Jurkat/hCD20 cells (human CD20, no GITR; negative control cell line) (human, UniProt P11836 1-297)
# T2 sequence (looked up): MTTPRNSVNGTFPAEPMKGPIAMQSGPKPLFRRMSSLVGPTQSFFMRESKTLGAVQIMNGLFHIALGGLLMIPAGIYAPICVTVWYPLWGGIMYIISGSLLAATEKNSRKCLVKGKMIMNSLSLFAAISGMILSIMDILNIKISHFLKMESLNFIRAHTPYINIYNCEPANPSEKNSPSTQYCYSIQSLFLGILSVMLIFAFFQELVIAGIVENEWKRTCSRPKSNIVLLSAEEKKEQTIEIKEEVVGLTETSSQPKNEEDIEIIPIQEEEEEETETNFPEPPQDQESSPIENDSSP
# T3: hGITR.mFc (dimeric recombinant human GITR ectodomain protein, mouse Fc fusion) (human)
# T3 construct: also called dimeric human GITR; dimeric GITR
# T3 chain: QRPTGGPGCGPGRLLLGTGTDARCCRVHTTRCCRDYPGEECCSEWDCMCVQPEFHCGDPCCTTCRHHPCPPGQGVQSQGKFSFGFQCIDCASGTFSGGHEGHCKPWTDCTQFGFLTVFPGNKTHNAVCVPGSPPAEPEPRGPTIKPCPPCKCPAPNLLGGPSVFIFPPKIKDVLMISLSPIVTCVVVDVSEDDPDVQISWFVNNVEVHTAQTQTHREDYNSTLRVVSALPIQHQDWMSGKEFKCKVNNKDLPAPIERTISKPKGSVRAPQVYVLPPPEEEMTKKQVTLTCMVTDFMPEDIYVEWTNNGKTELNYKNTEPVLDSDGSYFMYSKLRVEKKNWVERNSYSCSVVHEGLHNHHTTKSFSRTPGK
# B1: mAb1 (antibody, human IgG1, kappa, V domains shown)
# VH: QVQLQESGPGLVKPSETLSLTCIVSGGSISGYFWNWIRQPPGKGLEWIGYIYYSGTTIYNPSLKSRFTISLDTSKNQFSLKLTSVTAADTAVYYCARESYDPSPRYFDHWGQGTLVTVSS
# VL: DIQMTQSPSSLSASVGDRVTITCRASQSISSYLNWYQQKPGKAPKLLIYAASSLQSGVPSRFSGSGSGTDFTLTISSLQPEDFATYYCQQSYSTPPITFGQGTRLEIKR
# notes: Human IgG1; N101D variant of CompAb1; also called N101D Variant; N101D
# Legend:
# [1] = target: T1, human GITR expressed on the cell surface; assay: cell-based or functional assay
# [2] = target: cynomolgus monkey GITR expressed on the cell surface (Macaca fascicularis (cynomolgus monkey)); assay: cell-based or functional assay
# [3] = target: T2, Jurkat/hCD20 cells (human CD20, no …); assay: cell-based or functional assay
# [4] = target: T3, hGITR.mFc (dimeric recombinant human …); assay: SPR Biacore T-200; purified antibody captured on anti-human Fc; 5 nM hGITR.mFc
# Protocol: For purified antibodies, Biacore experiments were performed as follows. Using a Biacore T-200 instrument, antibodies were captured for 30 seconds at a flow rate of 8 uL/min on a CM5 anti-humanFc-coupled surface. Approximately 120 RU of each antibody were captured. 10 nM hGITR.mmH (soluble monomeric hGITR, SEQ ID NO: 45) or 5 nM hGITR.mFc (dimeric Macaca fasicularis GITR, SEQ ID NO: 46) were injected over this surface for 5 minutes at a flow rate of 50 uL/min. Dissociation was measured for 10 min. The KD and t_{1/2} were calculated by fitting the double-referenced sensorgrams to a 1:1 binding model.
# [5] = target: T1, human GITR expressed on the cell surface; assay: flow cytometry on Jurkat/hCD20/hGITR cells
# Protocol: FIG. 5A, FIG. 5B, and FIG. 5C depict cell-surface binding of mAb1 and IgG1 isotype control at a range of concentrations (18 pM to 300 nM) on Jurkat/hCD20 (FIG. 5A), Jurkat/hCD20/hGITR (FIG. 5B), and Jurkat/hCD20/MfGITR (FIG. 5C) cells. Binding was detected using an Alexa647-labeled anti-human IgG by flow cytometry. Fluorescence intensity was plotted as geometric MFI. h, Human; Mf, Macaca fascicularis (cynomolgus monkey).
# Flow cytometry was used to evaluate mAb1 binding to Jurkat/hCD20/hGITR cells and Jurkat/hCD20/MfGITR cells. Jurkat/hCD20 cells were used as a negative control cell line for GITR binding. Cells were added to a 96-well V-bottom plate (2×10⁵ to 4×10⁵ cells/well) and incubated in Fc block solution, followed by successive incubation on ice with primary antibody (mAb1 or IgG1 isotype control) at final concentrations ranging from 18 pM to 300 nM and a secondary antibody (AF647-conjugated anti-human IgG) at 5 μg/mL. […] Data were analyzed with Flow.lo software. For EC₅₀ (effective concentration at 50% activity) determinations, measured geometric MFI values were analyzed using a 4-parameter logistic equation over a 9-point response curve with GraphPad Prism. The fold binding was determined by taking the ratio of the highest MFI on the curve to the MFI of the wells containing secondary antibody only.
binder,measurement,setting,value
B1,"EC50, NFAT-luciferase in Jurkat/NFAT-Luc/hFcγR3a effector cells with Jurkat/hCD20/hGITR target cells",[1],0.032 nM
same,"Fold Change in Activity, NFAT-luciferase in Jurkat/NFAT-Luc/hFcγR3a effector cells with Jurkat/hCD20/hGITR target cells",[1],38 fold
same,"EC50, NFAT-luciferase in Jurkat/NFAT-Luc/MfFcγR3a effector cells with Jurkat/hCD20/MfGITR target cells",[2],0.016 nM
same,"Fold Change in Activity, NFAT-luciferase in Jurkat/NFAT-Luc/MfFcγR3a effector cells with Jurkat/hCD20/MfGITR target cells",[2],23.9 fold
same,"Fold Change in Activity, NFAT-luciferase in Jurkat/NFAT-Luc/MfFcγR3a effector cells with Jurkat/hCD20 target cells",[3],1.02 fold
same,"Fold Change in Activity, NFAT-luciferase in Jurkat/NFAT-Luc/hFcγR3a effector cells with Jurkat/hCD20 target cells",[3],1.01 fold
same,Kd,[4],0.104 nM
same,t1/2,[4],1.2 h
same,EC50,[5],1.96 nM
